Biological target: T1, human Aβ1-42 peptides (human, UniProt P05067 672-713)
T1 construct: domain: Aβ1-42; Synthetic peptide prepared to obtain minimal aggregation; also called Aβ peptides
Assay: recombinant proteins mixed in vitro for 24 hrs at 37° C., then Western blot
Protocol: Protein-protein binding assays. Nanomolar concentrations of recombinant human SFRP1 (RD cat: 5396-SF-025) and human Aβ1-42 peptides (Invitrogen, cat: 03-111, prepared to obtain minimal peptide aggregation) were mixed in protein Lobind tubes (Eppendorf) for 24 hrs at 37° C. NuPAGE LDS sample buffer (4×) was added to the tubes, boiled for 5 min and subjected to Western blot analysis. Microplate-based solid-phase protein-protein binding assays was performed by immobilizing in wells 200 ng/well of either human Aβ1-42 peptides, BSA, used as a […] control because previously described as an Aβ interactor; or heparin, a described SFRP1 binding partner. Immobilization was performed overnight at 4° C. The wells were then washed with TBS 3× and incubated with two different SFRP1 concentrations for 2 hrs at RT. In the converse experiment, BSA, heparin or SFRP1 were immobilized overnight at 4° C. and two different concentrations of Aβ1-42 were added for 2 hrs at RT. The wells were washed 6× in TBS and 2× sample buffer containing β-mercaptoethanol was added to the well. The content was recovered by scrapping, boiled for 5 min and analyzed by SDS-PAGE followed by WB using anti-Sfrp1 or anti-Aβ antibodies, respectively.

T1 sequence (P05067 672-713 limits assumed): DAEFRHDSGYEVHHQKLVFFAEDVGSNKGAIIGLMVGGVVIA

B1: human recombinant SFRP1 (other, UniProt Q8N474 32-314, looked up)
chain: SEYDYVSFQSDIGPYQSGRFYTKPPQCVDIPADLRLCHNVGYKKMVLPNLLEHETMAEVKQQASSWVPLLNKNCHAGTQVFLCSLFAPVCLDRPIYPCRWLCEAVRDSCEPVMQFFGFYWPEMLKCDKFPEGDVCIAMTPPNATEASKPQGTTVCPPCDNELKSEAIIEHLCASEFALRMKIKEVKKENGDKKIVPKKKKPLKLGPIKKKDLKKLVLYLKNGADCPCHQLDNLSHHFLIMGRKVKSQYLLTAIHKWDKKNKEFKNFMKKMKNHECPTFQSVFK
notes: Bought recombinant protein; also called hSFRP1; recombinant hSFRP1
B1: binds.

Source: US20220098289A1 (CONSEJO SUPERIOR DE INVESTIGACIONES CIENT FICAS, published 2022)
